Reference: patent US20130143793A1 (ZEALAND PHARMA A S, published 2013)
Like-named read-outs stand apart in the source and are kept apart here. Square brackets hold non-standard residues; d marks the D form. Ends that are not written are not given here.

Legend:
Test in all cases: cell-based or functional assay
[1] = target: T1, mouse CCK-B receptor (mouse, UniProt P56481 1-453)
T1 sequence (looked up): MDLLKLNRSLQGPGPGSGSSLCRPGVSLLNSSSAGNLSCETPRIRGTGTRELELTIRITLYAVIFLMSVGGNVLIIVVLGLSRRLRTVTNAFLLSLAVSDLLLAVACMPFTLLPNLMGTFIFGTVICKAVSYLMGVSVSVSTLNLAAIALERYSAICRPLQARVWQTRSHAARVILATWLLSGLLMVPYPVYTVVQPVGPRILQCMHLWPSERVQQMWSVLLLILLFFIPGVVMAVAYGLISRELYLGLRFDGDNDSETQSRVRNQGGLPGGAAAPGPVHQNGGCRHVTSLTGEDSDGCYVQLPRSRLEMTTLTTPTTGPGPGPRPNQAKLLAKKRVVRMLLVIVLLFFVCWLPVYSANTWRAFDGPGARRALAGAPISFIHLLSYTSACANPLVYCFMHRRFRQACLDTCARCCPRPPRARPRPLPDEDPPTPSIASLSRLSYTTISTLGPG

[2] = target: T2, human CCK-B receptor (human, UniProt P32239 1-447)
T2 sequence (looked up): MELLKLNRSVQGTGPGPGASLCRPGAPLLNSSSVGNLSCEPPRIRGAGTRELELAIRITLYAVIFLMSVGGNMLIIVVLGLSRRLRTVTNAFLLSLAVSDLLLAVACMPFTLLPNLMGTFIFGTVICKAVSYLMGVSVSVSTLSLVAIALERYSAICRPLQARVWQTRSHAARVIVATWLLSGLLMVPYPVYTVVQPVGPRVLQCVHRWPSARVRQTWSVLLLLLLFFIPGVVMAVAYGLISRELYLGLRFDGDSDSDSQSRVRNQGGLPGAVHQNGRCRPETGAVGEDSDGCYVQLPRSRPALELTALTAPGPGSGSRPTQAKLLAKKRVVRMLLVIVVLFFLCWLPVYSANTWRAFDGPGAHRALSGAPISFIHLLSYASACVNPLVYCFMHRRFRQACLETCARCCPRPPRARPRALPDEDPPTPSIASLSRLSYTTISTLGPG

[3] = target: T1, mouse CCK-B receptor; remark: listed apart in the source
[4] = target: T2, human CCK-B receptor; remark: listed apart in the source
[5] = target: T3, human GLP-1 receptor (human, UniProt P43220 24-463)
Target sequence in this assay (P43220 24-463): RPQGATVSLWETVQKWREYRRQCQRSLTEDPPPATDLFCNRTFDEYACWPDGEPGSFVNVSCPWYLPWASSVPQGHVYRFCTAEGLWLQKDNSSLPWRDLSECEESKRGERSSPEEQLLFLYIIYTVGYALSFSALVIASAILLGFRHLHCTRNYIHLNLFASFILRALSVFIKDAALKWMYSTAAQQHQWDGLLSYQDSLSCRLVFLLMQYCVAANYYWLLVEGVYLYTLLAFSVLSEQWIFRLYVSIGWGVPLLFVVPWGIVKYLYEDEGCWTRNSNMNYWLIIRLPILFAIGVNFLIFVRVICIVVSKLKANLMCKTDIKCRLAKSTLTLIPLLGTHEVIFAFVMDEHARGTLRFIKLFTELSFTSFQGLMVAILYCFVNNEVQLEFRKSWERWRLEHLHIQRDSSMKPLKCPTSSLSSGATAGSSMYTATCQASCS

[6] = target: T3, human GLP-1 receptor; remark: listed apart in the source
Target sequence in this assay (P43220 24-463): as above

[7] = target: T3, human GLP-1 receptor; remark: listed apart in the source
[8] = target: T2, human CCK-B receptor; remark: listed apart in the source

“GLP-1(7-36)-Peg3-SKK-[Gln1,Leu15]Gastrin17 (peptide)” was tested, and the mCCK-B R EC50 (p-ERK) [1] was 51 nM, the hCCK-B R EC50 (p-ERK) [2] was 8.8 nM and the mCCK-B R EC50 (p-ERK) [3] was 51.1 nM. The hCCK-B R EC50 (p-ERK) [4] was 8.76 nM.

Molecule “[Arg34]GLP-1(7-37)-Peg3-Peg3-[Leu4]Gastrin6 (peptide)” has a hCCK-B R EC50 (p-ERK) [2] of 24 nM.

“h[Leu15]Gastrin17 (from UniProt P01350 76-92) (peptide)” gave a hCCK-B R EC50 (p-ERK) [2] of 2.4 nM.

“[Aib8,Arg34,Lys(Hexadecanoyl-isoGlu)26]GLP-1(7-37)-Peg3-Peg3-[Leu4]Gastrin6 (peptide)” gave a hGLP-1 R EC50 (cAMP) [5] of 0.088 nM and a hCCK-B R EC50 (p-ERK) [2] of 59 nM.

In the case of “GLP-1(7-36)-SKK-[Gln1,Leu15]Gastrin17 (peptide)”, the hGLP-1 R EC50 (cAMP) [5] is reported as 0.031 nM, the mCCK-B R EC50 (p-ERK) [1] is reported as 59 nM and the hCCK-B R EC50 (p-ERK) [2] is reported as 16 nM. It also gave a hGLP-1 R EC50 (cAMP) [6] of 0.116 nM, a mCCK-B R EC50 (p-ERK) [3] of 58.6 nM and a hCCK-B R EC50 (p-ERK) [4] of 15.6 nM.

Work on “GLP-1(7-36)-AAA-[Gln1,Leu15]Gastrin17 (peptide)” yielded a hGLP-1 R EC50 (cAMP) [5] of 0.034 nM, a mCCK-B R EC50 (p-ERK) [1] of 54 nM and a hCCK-B R EC50 (p-ERK) [2] of 19 nM. For the same molecule, the hGLP-1 R EC50 (cAMP) [6] was 0.114 nM, the mCCK-B R EC50 (p-ERK) [3] was 54.1 nM and the hCCK-B R EC50 (p-ERK) [4] was 18.8 nM.

In the case of “GLP-1(7-36)-DBF-SKK-[Gln1,Leu15]Gastrin17 (peptide)”, the mCCK-B R EC50 (p-ERK) [1] is reported as 87 nM, the hCCK-B R EC50 (p-ERK) [2] is reported as 26 nM and the mCCK-B R EC50 (p-ERK) [3] is reported as 86.9 nM. It also gave a hCCK-B R EC50 (p-ERK) [4] of 25.7 nM.

For h[Gln1,Leu15]Gastrin17 (peptide), the mCCK-B R EC50 (p-ERK) [1] was 18 nM and the mCCK-B R EC50 (p-ERK) [3] was 18.2 nM.

“[Lys(Hexadecanoyl-isoGlu)34]GLP-1(7-37)-Peg3-Peg3-[Leu4]Gastrin6 (peptide)” gave a hCCK-B R EC50 (p-ERK) [2] of 18 nM.

With “[Arg26,34,Gly8,Lys(Hexadecanoyl-isoGlu)36]GLP-1(7-37)-Peg3-Peg3-[Leu4]Gastrin6 (peptide)” the hGLP-1 R EC50 (cAMP) [5] was 0.12 nM and the hCCK-B R EC50 (p-ERK) [2] was 29 nM.

“[Arg26,34,Lys(Hexadecanoyl-isoGlu)36]GLP-1(7-37)-Peg3-Peg3-[Leu4]Gastrin6 (peptide)” showed a hGLP-1 R EC50 (cAMP) [5] of 0.11 nM and a hCCK-B R EC50 (p-ERK) [2] of 78 nM.

Work on “GLP-1(7-36)-K-[Gln1,Leu15]Gastrin17 (peptide)” yielded a hGLP-1 R EC50 (cAMP) [5] of 0.03 nM, a mCCK-B R EC50 (p-ERK) [1] of 110 nM and a hCCK-B R EC50 (p-ERK) [2] of 77 nM. It also gave a hGLP-1 R EC50 (cAMP) [6] of 0.0842 nM, a mCCK-B R EC50 (p-ERK) [3] of 114 nM and a hCCK-B R EC50 (p-ERK) [4] of 77.3 nM.

Work on “GLP-1(7-36)-[Gln1,Leu15]Gastrin17 (peptide)” yielded a hGLP-1 R EC50 (cAMP) [5] of 0.03 nM, a mCCK-B R EC50 (p-ERK) [1] of 73 nM and a hCCK-B R EC50 (p-ERK) [2] of 26 nM. It also gave a hGLP-1 R EC50 (cAMP) [6] of 0.145 nM, a mCCK-B R EC50 (p-ERK) [3] of 73.1 nM and a hCCK-B R EC50 (p-ERK) [4] of 25.9 nM.

With “[Aib8,Arg34]GLP-1(7-37)-Peg3-Peg3-[Leu4]Gastrin6 (peptide)” the hGLP-1 R EC50 (cAMP) [5] was 0.043 nM and the hCCK-B R EC50 (p-ERK) [2] was 42 nM.

For “[Lys(Hexadecanoyl-isoGlu)26]GLP-1(7-37)-Peg3-Peg3-[Leu4]Gastrin6 (peptide)”, the hCCK-B R EC50 (p-ERK) [2] was 26 nM.

Molecule “CCK-8 (from UniProt P06307 96-103) (peptide)” has a mCCK-B R EC50 (p-ERK) [1] of 160 nM and a mCCK-B R EC50 (p-ERK) [3] of 163 nM.

With “GLP-1(7-36)-8Aoc-SKK-[Gln1,Leu15]Gastrin17 (peptide)” the mCCK-B R EC50 (p-ERK) [1] was 83 nM, the hCCK-B R EC50 (p-ERK) [2] was 52 nM and the mCCK-B R EC50 (p-ERK) [3] was 82.5 nM. The hCCK-B R EC50 (p-ERK) [4] was 51.9 nM.

“GLP-1(7-36)-8Aoc-8Aoc-[Gln1,Leu15]Gastrin17 (peptide)” gave a mCCK-B R EC50 (p-ERK) [1] of 71 nM, a hCCK-B R EC50 (p-ERK) [2] of 13 nM and a mCCK-B R EC50 (p-ERK) [3] of 71.4 nM. For the same molecule, the hCCK-B R EC50 (p-ERK) [4] was 12.8 nM.

Work on “[Arg34,Lys(Hexadecanoyl-isoGlu)26]GLP-1(7-37)-Peg3-Peg3-[Leu4]Gastrin6 (peptide)” yielded a hCCK-B R EC50 (p-ERK) [2] of 29 nM.

“GLP-1(7-36)-Peg3-Peg3-[Gln1,Leu15]Gastrin17 (peptide)” gave a mCCK-B R EC50 (p-ERK) [1] of 58 nM, a hCCK-B R EC50 (p-ERK) [2] of 8.2 nM and a mCCK-B R EC50 (p-ERK) [3] of 58.3 nM.

With HGEGTFTSDLSKQMEKEAVRLFIEWLKN[Peg3][Peg3]YGWLDF-NH2 [[Lys16]Exendin-4(1-28)-Peg3-Peg3-[Leu4]Gastrin6] the “hGLP-1 R EC50 (cAMP)” value [7] was 0.032 nM and the “hCCK-B R EC50 (p-ERK)” value [8] was 15 nM.
